{"source": "patent US20130058962A1", "about": "(published 2013)", "binders": {"B1": {"name": "JDQ-B2 (VHH)", "VHH": "QVQLVESGGGLVQPGGSLRLSCTVSGSIFDLPGMNWYRQAPGAQRELVADISSDGRRTNYADSVKGRFTMSRDNAKKTVYLQMDSLKPDDTAVYYCNVKFTHHWGQGIQVTVSS"}, "B2": {"name": "JDQ-C5 (VHH)", "VHH": "B1 VHH with D30G, N35S, R56G, N59H, M70I, A75D"}, "B3": {"name": "scFv#7 (scFv)", "scFv": "SYELTQPPSMSVALGQTAKVTCQGDNLENFYVQWHQQKPGQAPVTVIFQDNKRPSGIPDRFSGSNSGNTATLTISGARTEDEADYYCQSGHSSIGGVFGSGTSLTVLGQPAAAGGGGSGGGGSGGGGSARQVQLQESGPSLVKPSQTLSLTCTVSGFSLTGNSVTWVRQAPGNVPEWLGGISRGGRTYYDTALKSRLSITRDTSKRQVSLSLSSVTTEDTAMYFCARSAYSTLYDYEYAADIYDWGPGLLVTVSSTSGAPVPYPDPLEPRAA"}, "B4": {"name": "JDQ-F9 (VHH)", "VHH": "QVQLVESGGGLVQDGGSLRLSCTTSGSIDSFNAIEWYRQAPGKQRELVASISSDGRRTNYADSVKGRFTISGDNAKNTVYLQMNSLKPEDTAVYYCHRPFTHYWGQGTQVTVSS"}, "B5": {"name": "ciA-G5 (VHH)", "VHH": "QVQLVESGGGLVQPGGSLRLSCQVSGFTFGDWVMSWFRQAPGKEREFVASITATSSLKYYADSVKGRFTISRDNVNNTLFLQMDRLKSEDTAVYYCRSPNYWGQGTQVTVSA"}, "B6": {"name": "5D/AA6 VHH heterodimer (bispecific antibody)", "chain": "QVQLVESGGGLVQPGGSLRLSCEASGFTLDYYGIGWFRQPPGKEREAVSYISASARTILYADSVKGRFTISRDNAKNAVYLQMNSLKREDTAVYYCARRRFSASSVNRWLADDYDVWGRGTQVAVSSEPKTPKPQGGGGSGGGGSGGGGSQLQLVETGGGLVQPGGSLRLSCAASGFTFSDYVMTWVRQAPGKGPEWIATINTDGSTMRDDSTKGRFTISRDNAKNTLYLQMTSLKPEDTALYYCARGRVISASAIRGAVRGPGTQVTVSSEPKTPKPQP"}, "B7": {"name": "ciA-A5 (VHH)", "VHH": "QVQLVESGGGLVQPGGSLRLSCAASAGNLDYYAIGWFRQAPGKEREGVSCISSSDGSTVYTDSVKGRFTISRDNTKNTVDLQMDNLKPEDTAVYYCATVVNYYCTAGGSIHASPYEIWGQGTQVTVSS"}, "B8": {"name": "JDQ-E9 (VHH)", "VHH": "QVQLVESGGGLVRPGGSLRLSCVVSGFAYEMPMMGWYRQAPGNQRELVATIGTGGRMNYADSVKGRFTISRDNAKNTVYLQMNSLKPEDTAAYYCKIEFTNYWGQGTQVTVSS"}}, "key": {"[1]": {"target": "T1, Botulinum neurotoxin serotype A1 (BoNT/A) holotoxin (Clostridium botulinum, UniProt P0DPI1 2-1296)", "assay": "binding competition assay"}, "[2]": {"target": "T1, Botulinum neurotoxin serotype A1 …", "assay": "method not stated"}, "[3]": {"target": "purified recombinant BoNT/A light chain (Clostridium botulinum, UniProt P0DPI1 2-448)", "assay": "ELISA on BoNT subunits / Western blot of reduced holotoxin"}, "BoNT/A heavy chain": {"target": "BoNT/A heavy chain (Clostridium botulinum, UniProt P0DPI1 449-1296)", "assay": "ELISA on BoNT subunits / Western blot of reduced holotoxin"}, "[4]": {"target": "Clostridium difficile toxin A (TcdA) holotoxin (Clostridium difficile) (UniProt P16154)", "sequence (P16154 whole entry)": "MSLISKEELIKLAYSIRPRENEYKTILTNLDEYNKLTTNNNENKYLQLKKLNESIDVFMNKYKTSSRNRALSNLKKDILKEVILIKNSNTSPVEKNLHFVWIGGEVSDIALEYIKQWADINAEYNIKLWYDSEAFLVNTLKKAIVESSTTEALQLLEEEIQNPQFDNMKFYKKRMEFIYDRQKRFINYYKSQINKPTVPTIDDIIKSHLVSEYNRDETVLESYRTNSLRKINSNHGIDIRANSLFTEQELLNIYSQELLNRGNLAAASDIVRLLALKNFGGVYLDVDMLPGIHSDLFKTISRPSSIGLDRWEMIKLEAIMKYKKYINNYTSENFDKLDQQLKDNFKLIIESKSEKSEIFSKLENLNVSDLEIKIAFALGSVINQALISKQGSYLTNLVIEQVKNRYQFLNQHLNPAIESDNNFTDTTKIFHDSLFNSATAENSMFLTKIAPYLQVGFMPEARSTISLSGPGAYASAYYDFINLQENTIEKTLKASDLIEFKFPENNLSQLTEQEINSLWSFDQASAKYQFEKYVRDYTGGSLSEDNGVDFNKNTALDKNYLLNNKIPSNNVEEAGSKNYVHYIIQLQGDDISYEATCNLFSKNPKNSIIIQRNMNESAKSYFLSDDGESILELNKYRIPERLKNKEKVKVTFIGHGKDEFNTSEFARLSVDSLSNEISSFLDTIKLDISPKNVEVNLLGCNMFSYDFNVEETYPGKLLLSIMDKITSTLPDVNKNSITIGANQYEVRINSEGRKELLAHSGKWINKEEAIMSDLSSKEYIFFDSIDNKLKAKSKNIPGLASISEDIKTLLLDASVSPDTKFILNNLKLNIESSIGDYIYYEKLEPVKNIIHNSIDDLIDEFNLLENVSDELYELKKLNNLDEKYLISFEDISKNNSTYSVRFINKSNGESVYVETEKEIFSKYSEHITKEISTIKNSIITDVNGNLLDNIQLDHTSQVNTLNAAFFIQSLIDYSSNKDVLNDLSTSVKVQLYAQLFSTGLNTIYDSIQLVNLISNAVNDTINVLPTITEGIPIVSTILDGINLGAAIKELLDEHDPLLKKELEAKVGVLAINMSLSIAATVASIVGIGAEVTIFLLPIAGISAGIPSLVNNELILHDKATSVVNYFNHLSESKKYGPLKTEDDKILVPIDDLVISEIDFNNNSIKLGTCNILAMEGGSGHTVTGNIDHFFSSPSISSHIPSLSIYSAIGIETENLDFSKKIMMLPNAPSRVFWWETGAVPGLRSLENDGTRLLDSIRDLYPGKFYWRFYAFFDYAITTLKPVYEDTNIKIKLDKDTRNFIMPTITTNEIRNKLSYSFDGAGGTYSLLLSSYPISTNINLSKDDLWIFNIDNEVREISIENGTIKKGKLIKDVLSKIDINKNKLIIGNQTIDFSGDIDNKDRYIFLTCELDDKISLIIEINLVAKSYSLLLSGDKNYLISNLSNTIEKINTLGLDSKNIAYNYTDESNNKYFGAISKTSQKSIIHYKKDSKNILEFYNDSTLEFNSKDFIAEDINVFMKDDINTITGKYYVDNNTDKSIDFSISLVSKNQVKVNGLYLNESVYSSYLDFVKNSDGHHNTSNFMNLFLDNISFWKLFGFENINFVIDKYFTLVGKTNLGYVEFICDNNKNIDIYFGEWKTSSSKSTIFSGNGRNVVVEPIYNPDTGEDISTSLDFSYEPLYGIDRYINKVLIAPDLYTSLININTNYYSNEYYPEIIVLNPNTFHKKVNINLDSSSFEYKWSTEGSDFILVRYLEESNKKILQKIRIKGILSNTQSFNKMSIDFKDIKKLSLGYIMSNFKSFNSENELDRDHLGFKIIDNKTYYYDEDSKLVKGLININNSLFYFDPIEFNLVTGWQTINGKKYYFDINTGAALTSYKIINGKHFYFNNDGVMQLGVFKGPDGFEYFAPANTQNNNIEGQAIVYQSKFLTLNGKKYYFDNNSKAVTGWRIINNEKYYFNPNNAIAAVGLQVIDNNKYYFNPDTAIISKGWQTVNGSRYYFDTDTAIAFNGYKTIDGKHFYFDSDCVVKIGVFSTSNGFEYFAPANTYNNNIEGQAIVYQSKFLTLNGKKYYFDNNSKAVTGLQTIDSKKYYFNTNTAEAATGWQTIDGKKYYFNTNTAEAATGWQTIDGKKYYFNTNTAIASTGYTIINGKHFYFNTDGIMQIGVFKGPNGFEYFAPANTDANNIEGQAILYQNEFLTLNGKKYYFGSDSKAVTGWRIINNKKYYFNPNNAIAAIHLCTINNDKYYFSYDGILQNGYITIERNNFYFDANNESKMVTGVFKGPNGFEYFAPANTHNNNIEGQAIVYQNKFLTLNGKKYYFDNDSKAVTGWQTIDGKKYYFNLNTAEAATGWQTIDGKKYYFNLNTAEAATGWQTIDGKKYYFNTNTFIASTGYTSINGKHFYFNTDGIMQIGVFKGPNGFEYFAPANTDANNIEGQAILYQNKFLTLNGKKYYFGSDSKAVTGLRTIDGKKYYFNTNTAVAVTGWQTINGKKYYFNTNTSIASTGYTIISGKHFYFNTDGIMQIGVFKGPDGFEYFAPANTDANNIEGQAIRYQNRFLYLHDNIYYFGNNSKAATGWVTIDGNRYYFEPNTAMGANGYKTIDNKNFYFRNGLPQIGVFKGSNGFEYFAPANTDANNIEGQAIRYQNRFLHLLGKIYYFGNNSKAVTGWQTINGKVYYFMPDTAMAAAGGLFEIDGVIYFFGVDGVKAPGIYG", "assay": "cell-based or functional assay"}, "[5]": {"target": "Clostridium difficile toxin B (TcdB) holotoxin (Clostridium difficile) (UniProt P18177)", "sequence (P18177 2-2366)": "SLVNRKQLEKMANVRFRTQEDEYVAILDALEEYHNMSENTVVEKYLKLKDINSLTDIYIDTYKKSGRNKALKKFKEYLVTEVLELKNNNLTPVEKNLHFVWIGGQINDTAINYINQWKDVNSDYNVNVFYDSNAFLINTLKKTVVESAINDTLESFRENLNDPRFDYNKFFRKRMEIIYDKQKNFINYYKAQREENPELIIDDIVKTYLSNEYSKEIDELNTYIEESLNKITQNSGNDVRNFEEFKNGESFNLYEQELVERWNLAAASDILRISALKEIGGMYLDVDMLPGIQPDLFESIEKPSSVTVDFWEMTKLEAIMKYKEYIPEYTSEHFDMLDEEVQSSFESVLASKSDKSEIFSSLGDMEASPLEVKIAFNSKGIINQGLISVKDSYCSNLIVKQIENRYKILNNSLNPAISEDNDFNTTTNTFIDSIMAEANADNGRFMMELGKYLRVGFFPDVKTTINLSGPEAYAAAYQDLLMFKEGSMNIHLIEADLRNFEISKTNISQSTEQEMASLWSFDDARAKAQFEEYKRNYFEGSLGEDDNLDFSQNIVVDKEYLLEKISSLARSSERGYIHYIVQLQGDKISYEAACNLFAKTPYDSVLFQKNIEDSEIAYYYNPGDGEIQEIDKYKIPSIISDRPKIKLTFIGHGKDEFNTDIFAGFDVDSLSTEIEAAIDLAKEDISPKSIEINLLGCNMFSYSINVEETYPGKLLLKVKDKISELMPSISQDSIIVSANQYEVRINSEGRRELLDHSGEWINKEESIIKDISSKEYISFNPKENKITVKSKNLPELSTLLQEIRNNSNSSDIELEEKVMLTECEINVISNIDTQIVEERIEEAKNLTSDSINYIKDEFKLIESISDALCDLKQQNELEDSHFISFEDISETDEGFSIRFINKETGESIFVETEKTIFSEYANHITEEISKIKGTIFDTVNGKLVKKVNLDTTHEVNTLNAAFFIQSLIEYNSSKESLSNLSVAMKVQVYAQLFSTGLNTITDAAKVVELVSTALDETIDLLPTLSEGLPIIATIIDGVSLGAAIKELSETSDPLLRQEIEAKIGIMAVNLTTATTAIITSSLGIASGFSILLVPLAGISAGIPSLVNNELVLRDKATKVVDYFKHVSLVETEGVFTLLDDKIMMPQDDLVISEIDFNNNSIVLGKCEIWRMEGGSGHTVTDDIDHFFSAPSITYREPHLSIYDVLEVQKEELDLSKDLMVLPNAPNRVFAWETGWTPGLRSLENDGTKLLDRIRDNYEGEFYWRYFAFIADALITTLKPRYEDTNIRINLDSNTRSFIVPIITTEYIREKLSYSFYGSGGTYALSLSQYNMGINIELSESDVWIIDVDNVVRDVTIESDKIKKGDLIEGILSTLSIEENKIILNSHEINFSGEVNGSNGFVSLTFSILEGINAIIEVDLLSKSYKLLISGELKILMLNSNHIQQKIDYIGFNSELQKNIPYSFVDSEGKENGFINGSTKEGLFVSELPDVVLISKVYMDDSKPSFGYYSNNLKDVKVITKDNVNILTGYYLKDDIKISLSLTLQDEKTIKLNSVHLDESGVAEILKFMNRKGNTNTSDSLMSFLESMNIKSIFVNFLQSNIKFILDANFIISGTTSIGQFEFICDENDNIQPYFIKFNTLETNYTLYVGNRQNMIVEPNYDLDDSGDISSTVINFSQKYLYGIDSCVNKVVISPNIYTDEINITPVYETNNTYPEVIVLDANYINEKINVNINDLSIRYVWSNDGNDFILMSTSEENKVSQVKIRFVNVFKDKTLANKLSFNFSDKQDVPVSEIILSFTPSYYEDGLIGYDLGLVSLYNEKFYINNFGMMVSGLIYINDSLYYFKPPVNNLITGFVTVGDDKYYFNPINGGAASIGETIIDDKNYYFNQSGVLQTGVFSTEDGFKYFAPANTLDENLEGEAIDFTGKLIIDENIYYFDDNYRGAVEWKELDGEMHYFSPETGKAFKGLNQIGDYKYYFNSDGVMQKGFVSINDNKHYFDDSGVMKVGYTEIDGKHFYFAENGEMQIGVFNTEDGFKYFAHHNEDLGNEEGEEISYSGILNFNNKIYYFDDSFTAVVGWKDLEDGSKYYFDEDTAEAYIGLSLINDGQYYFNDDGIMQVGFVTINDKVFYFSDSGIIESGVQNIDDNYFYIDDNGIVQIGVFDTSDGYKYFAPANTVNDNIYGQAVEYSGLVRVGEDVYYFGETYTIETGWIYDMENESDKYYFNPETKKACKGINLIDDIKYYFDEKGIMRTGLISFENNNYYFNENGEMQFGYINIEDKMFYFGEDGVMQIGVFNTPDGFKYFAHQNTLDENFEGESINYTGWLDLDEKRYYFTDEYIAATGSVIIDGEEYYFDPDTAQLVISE", "assay": "cell-based or functional assay"}}, "note": "Where a chain is given by its changes, count along the chain named. “And” between values parts separate entries of the source, which are not always exact repeats. Equal values may be shown once.", "data": [{"binder": "B1", "values": [{"measurement": "binding result", "setting": "[1]", "value": "binds"}]}, {"binder": "B2", "values": [{"measurement": "binding result", "setting": "[1]", "value": "binds"}]}, {"binder": "B3", "values": [{"measurement": "Kd", "setting": "[2]", "value": "~1", "unit": "nM"}]}, {"binder": "B4", "values": [{"measurement": "binding result", "setting": "[1]", "value": "binds"}]}, {"binder": "B5", "values": [{"measurement": "binding result", "setting": "[3]", "value": "no binding"}, {"measurement": "binding result", "setting": "BoNT/A heavy chain", "value": "no binding"}]}, {"binder": "B6", "values": [{"measurement": "fold neutralization of TcdA against the 5D/AH3 heterodimer (CT26 cell rounding)", "setting": "[4]", "value": 5, "unit": "fold"}, {"measurement": "fold neutralization of TcdB against the 5D/AH3 heterodimer", "setting": "[5]", "value": "3 fold and 4 fold"}]}, {"binder": "B7", "values": [{"measurement": "binding result", "setting": "[3]", "value": "no binding"}, {"measurement": "binding result", "setting": "BoNT/A heavy chain", "value": "no binding"}]}, {"binder": "B8", "values": [{"measurement": "binding result", "setting": "[1]", "value": "binds"}]}]}
